Test results reported in patent US20220048967A1 (published 2022).
Numbered stars: 1 amine (or outer) side, 2 acyl side, 3 side chain; on linkers, the order of the positions; unused ones are H or OH. Square brackets hold non-standard residues; d marks the D form. Side chains are listed from the residue outwards. Ends that are not written are not given here. * marks the point of attachment. C20 diacid = O=C(O)CCCCCCCCCCCCCCCCCCC(=O)*; γGlu = O=C(O)[C@H](CCC(=O)[*:2])N[*:1]; αMeF = C[C@](N)(Cc1ccccc1)C(=O)O; αMeK = C[C@](N)(CCCCN)C(=O)O; Dab = NCC[C@H](N)C(=O)O; AEEA = NCCOCCOCC(=O)O; Aib = CC(C)(N)C(=O)O

Assays:
human GIP receptor = target: T1, human GIP receptor (human, UniProt P48546 22-466); assay: cell-based or functional assay
T1 sequence (looked up): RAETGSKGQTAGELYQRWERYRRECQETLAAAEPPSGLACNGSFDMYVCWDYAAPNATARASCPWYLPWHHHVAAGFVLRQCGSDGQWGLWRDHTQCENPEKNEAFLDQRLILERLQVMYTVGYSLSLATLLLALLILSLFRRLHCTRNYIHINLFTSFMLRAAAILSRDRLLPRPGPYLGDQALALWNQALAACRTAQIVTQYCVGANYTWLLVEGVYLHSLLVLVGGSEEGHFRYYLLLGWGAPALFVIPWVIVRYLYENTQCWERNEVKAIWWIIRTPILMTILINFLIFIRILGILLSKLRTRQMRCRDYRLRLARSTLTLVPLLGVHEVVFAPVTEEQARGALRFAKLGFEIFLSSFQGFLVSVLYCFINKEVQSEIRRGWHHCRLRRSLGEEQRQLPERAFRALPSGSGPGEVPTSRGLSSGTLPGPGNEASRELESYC

human GLP-1 receptor = human GLP-1 receptor (human, UniProt P43220 24-463); assay: cell-based or functional assay

B1: Example 13 (peptide)
peptide: Y[Aib]EGTFTSDYSILLD[Aib]IAQK([AEEA-AEEA-γGlu-C20 diacid])AFIEYLIEGGPSSGAPPPS-NH2
modifications: N-terminus assumed
SMILES: CC[C@H](C)[C@H](NC(=O)[C@H](CC(C)C)NC(=O)[C@H](Cc1ccc(O)cc1)NC(=O)[C@H](CCC(=O)O)NC(=O)[C@@H](NC(=O)[C@H](Cc1ccccc1)NC(=O)[C@H](C)NC(=O)[C@H](CCCCNC(=O)COCCOCCNC(=O)COCCOCCNC(=O)CC[C@H](NC(=O)CCCCCCCCCCCCCCCCCCC(=O)O)C(=O)O)NC(=O)[C@H](CCC(N)=O)NC(=O)[C@H](C)NC(=O)[C@@H](NC(=O)C(C)(C)NC(=O)[C@H](CC(=O)O)NC(=O)[C@H](CC(C)C)NC(=O)[C@H](CC(C)C)NC(=O)[C@@H](NC(=O)[C@H](CO)NC(=O)[C@H](Cc1ccc(O)cc1)NC(=O)[C@H](CC(=O)O)NC(=O)[C@H](CO)NC(=O)[C@@H](NC(=O)[C@H](Cc1ccccc1)NC(=O)[C@@H](NC(=O)CNC(=O)[C@H](CCC(=O)O)NC(=O)C(C)(C)NC(=O)[C@@H](N)Cc1ccc(O)cc1)[C@@H](C)O)[C@@H](C)O)[C@@H](C)CC)[C@@H](C)CC)[C@@H](C)CC)C(=O)N[C@@H](CCC(=O)O)C(=O)NCC(=O)NCC(=O)N1CCC[C@H]1C(=O)N[C@@H](CO)C(=O)N[C@@H](CO)C(=O)NCC(=O)N[C@@H](C)C(=O)N1CCC[C@H]1C(=O)N1CCC[C@H]1C(=O)N1CCC[C@H]1C(=O)N[C@@H](CO)C(N)=O
Human GIP receptor
  hGIPR cAMP EC50 ratio: 0.18
  hGIPR cAMP Rel EC50: 1.05 nM
Human GLP-1 receptor
  hGLP1R cAMP EC50 ratio: 0.0133
  hGLP1R cAMP Rel EC50: 5.39 nM

B2: Example 19 (peptide)
peptide: H[Aib]EGTFTSDYSI[αMeF]LDKK([Dab-AEEA-Dab-AEEA-C20 diacid])AQ[αMeK]AFIQYLLA[Aib]GPSSGAPPPS-NH2
Human GIP receptor
  hGIPR cAMP EC50 ratio: 0.436
  hGIPR cAMP Rel EC50: 0.386 nM
Human GLP-1 receptor
  hGLP1R cAMP EC50 ratio: 0.532
  hGLP1R cAMP Rel EC50: 0.104 nM

B3: Example 14 (peptide)
peptide: Y[Aib]EGTFTSDYSILLDKIAQKEFIQYLLE[Aib]GPSSGAPPPS-NH2
modifications: not fully specified (residue 20)
Human GIP receptor
  hGIPR cAMP EC50 ratio: 0.545
  hGIPR cAMP Rel EC50: 0.284 nM
Human GLP-1 receptor
  hGLP1R cAMP EC50 ratio: 0.0306
  hGLP1R cAMP Rel EC50: 1.87 nM

B4: Example 11 (peptide)
peptide: Y[Aib]EGTFTSDYSILLDSIAQ[Aib]AFIEYLLK([AEEA-AEEA-γGlu-C20 diacid])[Aib]GPSSGAPPPS-NH2
modifications: N-terminus assumed
SMILES: CC[C@H](C)[C@H](NC(=O)[C@H](CO)NC(=O)[C@H](CC(=O)O)NC(=O)[C@H](CC(C)C)NC(=O)[C@H](CC(C)C)NC(=O)[C@@H](NC(=O)[C@H](CO)NC(=O)[C@H](Cc1ccc(O)cc1)NC(=O)[C@H](CC(=O)O)NC(=O)[C@H](CO)NC(=O)[C@@H](NC(=O)[C@H](Cc1ccccc1)NC(=O)[C@@H](NC(=O)CNC(=O)[C@H](CCC(=O)O)NC(=O)C(C)(C)NC(=O)[C@@H](N)Cc1ccc(O)cc1)[C@@H](C)O)[C@@H](C)O)[C@@H](C)CC)C(=O)N[C@@H](C)C(=O)N[C@@H](CCC(N)=O)C(=O)NC(C)(C)C(=O)N[C@@H](C)C(=O)N[C@@H](Cc1ccccc1)C(=O)N[C@H](C(=O)N[C@@H](CCC(=O)O)C(=O)N[C@@H](Cc1ccc(O)cc1)C(=O)N[C@@H](CC(C)C)C(=O)N[C@@H](CC(C)C)C(=O)N[C@@H](CCCCNC(=O)COCCOCCNC(=O)COCCOCCNC(=O)CC[C@H](NC(=O)CCCCCCCCCCCCCCCCCCC(=O)O)C(=O)O)C(=O)NC(C)(C)C(=O)NCC(=O)N1CCC[C@H]1C(=O)N[C@@H](CO)C(=O)N[C@@H](CO)C(=O)NCC(=O)N[C@@H](C)C(=O)N1CCC[C@H]1C(=O)N1CCC[C@H]1C(=O)N1CCC[C@H]1C(=O)N[C@@H](CO)C(N)=O)[C@@H](C)CC
Human GIP receptor
  hGIPR cAMP EC50 ratio: 0.399
  hGIPR cAMP Rel EC50: 0.486 nM
Human GLP-1 receptor
  hGLP1R cAMP EC50 ratio: 0.0111
  hGLP1R cAMP Rel EC50: 6.89 nM

B5: Example 16 (peptide)
peptide: H[Aib]EGTFTSDYSILLDKK([AEEA-AEEA-γGlu-C20 diacid])AQ[Aib]AFIEYLIE[Aib]GPSSGAPPPS-NH2
modifications: N-terminus assumed
SMILES: CC[C@H](C)[C@H](NC(=O)[C@H](Cc1ccccc1)NC(=O)[C@H](C)NC(=O)C(C)(C)NC(=O)[C@H](CCC(N)=O)NC(=O)[C@H](C)NC(=O)[C@H](CCCCNC(=O)COCCOCCNC(=O)COCCOCCNC(=O)CC[C@H](NC(=O)CCCCCCCCCCCCCCCCCCC(=O)O)C(=O)O)NC(=O)[C@H](CCCCN)NC(=O)[C@H](CC(=O)O)NC(=O)[C@H](CC(C)C)NC(=O)[C@H](CC(C)C)NC(=O)[C@@H](NC(=O)[C@H](CO)NC(=O)[C@H](Cc1ccc(O)cc1)NC(=O)[C@H](CC(=O)O)NC(=O)[C@H](CO)NC(=O)[C@@H](NC(=O)[C@H](Cc1ccccc1)NC(=O)[C@@H](NC(=O)CNC(=O)[C@H](CCC(=O)O)NC(=O)C(C)(C)NC(=O)[C@@H](N)Cc1c[nH]cn1)[C@@H](C)O)[C@@H](C)O)[C@@H](C)CC)C(=O)N[C@@H](CCC(=O)O)C(=O)N[C@@H](Cc1ccc(O)cc1)C(=O)N[C@@H](CC(C)C)C(=O)N[C@H](C(=O)N[C@@H](CCC(=O)O)C(=O)NC(C)(C)C(=O)NCC(=O)N1CCC[C@H]1C(=O)N[C@@H](CO)C(=O)N[C@@H](CO)C(=O)NCC(=O)N[C@@H](C)C(=O)N1CCC[C@H]1C(=O)N1CCC[C@H]1C(=O)N1CCC[C@H]1C(=O)N[C@@H](CO)C(N)=O)[C@@H](C)CC
Human GIP receptor
  hGIPR cAMP EC50 ratio: 0.157
  hGIPR cAMP Rel EC50: 0.975 nM
Human GLP-1 receptor
  hGLP1R cAMP EC50 ratio: 1.43
  hGLP1R cAMP Rel EC50: 0.0437 nM

B6: Example 12 (peptide)
peptide: Y[Aib]EGTFTSDYSILLDKIAQK([AEEA-AEEA-γGlu-C20 diacid])AFIEYLIEGGPSSGAPPPS-NH2
modifications: N-terminus assumed
SMILES: CC[C@H](C)[C@H](NC(=O)[C@H](CCCCN)NC(=O)[C@H](CC(=O)O)NC(=O)[C@H](CC(C)C)NC(=O)[C@H](CC(C)C)NC(=O)[C@@H](NC(=O)[C@H](CO)NC(=O)[C@H](Cc1ccc(O)cc1)NC(=O)[C@H](CC(=O)O)NC(=O)[C@H](CO)NC(=O)[C@@H](NC(=O)[C@H](Cc1ccccc1)NC(=O)[C@@H](NC(=O)CNC(=O)[C@H](CCC(=O)O)NC(=O)C(C)(C)NC(=O)[C@@H](N)Cc1ccc(O)cc1)[C@@H](C)O)[C@@H](C)O)[C@@H](C)CC)C(=O)N[C@@H](C)C(=O)N[C@@H](CCC(N)=O)C(=O)N[C@@H](CCCCNC(=O)COCCOCCNC(=O)COCCOCCNC(=O)CC[C@H](NC(=O)CCCCCCCCCCCCCCCCCCC(=O)O)C(=O)O)C(=O)N[C@@H](C)C(=O)N[C@@H](Cc1ccccc1)C(=O)N[C@H](C(=O)N[C@@H](CCC(=O)O)C(=O)N[C@@H](Cc1ccc(O)cc1)C(=O)N[C@@H](CC(C)C)C(=O)N[C@H](C(=O)N[C@@H](CCC(=O)O)C(=O)NCC(=O)NCC(=O)N1CCC[C@H]1C(=O)N[C@@H](CO)C(=O)N[C@@H](CO)C(=O)NCC(=O)N[C@@H](C)C(=O)N1CCC[C@H]1C(=O)N1CCC[C@H]1C(=O)N1CCC[C@H]1C(=O)N[C@@H](CO)C(N)=O)[C@@H](C)CC)[C@@H](C)CC
Human GIP receptor
  hGIPR cAMP EC50 ratio: 0.659
  hGIPR cAMP Rel EC50: 0.3 nM
Human GLP-1 receptor
  hGLP1R cAMP EC50 ratio: 0.0603
  hGLP1R cAMP Rel EC50: 1.15 nM

B7: Example 18 (peptide)
peptide: H[Aib]EGTFTSDYSI[αMeF]LDKK([Dab-AEEA-Dab-AEEA-C20 diacid])AQ[αMeK]AFIQYLLA[Aib]GPSSGAPKPS-NH2
Human GIP receptor
  hGIPR cAMP EC50 ratio: 0.275
  hGIPR cAMP Rel EC50: 0.61 nM
Human GLP-1 receptor
  hGLP1R cAMP EC50 ratio: 0.589
  hGLP1R cAMP Rel EC50: 0.0945 nM

B8: Example 15 (peptide)
peptide: H[Aib]EGTFTSDYSILLDKKAQ[Aib]AFIEYLLE[Aib]GPSSGAPPPS-NH2
modifications: not fully specified (residue 17)
Human GIP receptor
  hGIPR cAMP EC50 ratio: 0.273
  hGIPR cAMP Rel EC50: 0.613 nM
Human GLP-1 receptor
  hGLP1R cAMP EC50 ratio: 1.65
  hGLP1R cAMP Rel EC50: 0.0336 nM

B9: Example 17 (peptide)
peptide: H[Aib]EGTFTSDYSILLDKIAQK([AEEA-AEEA-γGlu-C20 diacid])AFIEYLLE[Aib]GPSSG-NH2
modifications: N-terminus assumed
SMILES: CC[C@H](C)[C@H](NC(=O)[C@H](CCCCN)NC(=O)[C@H](CC(=O)O)NC(=O)[C@H](CC(C)C)NC(=O)[C@H](CC(C)C)NC(=O)[C@@H](NC(=O)[C@H](CO)NC(=O)[C@H](Cc1ccc(O)cc1)NC(=O)[C@H](CC(=O)O)NC(=O)[C@H](CO)NC(=O)[C@@H](NC(=O)[C@H](Cc1ccccc1)NC(=O)[C@@H](NC(=O)CNC(=O)[C@H](CCC(=O)O)NC(=O)C(C)(C)NC(=O)[C@@H](N)Cc1c[nH]cn1)[C@@H](C)O)[C@@H](C)O)[C@@H](C)CC)C(=O)N[C@@H](C)C(=O)N[C@@H](CCC(N)=O)C(=O)N[C@@H](CCCCNC(=O)COCCOCCNC(=O)COCCOCCNC(=O)CC[C@H](NC(=O)CCCCCCCCCCCCCCCCCCC(=O)O)C(=O)O)C(=O)N[C@@H](C)C(=O)N[C@@H](Cc1ccccc1)C(=O)N[C@H](C(=O)N[C@@H](CCC(=O)O)C(=O)N[C@@H](Cc1ccc(O)cc1)C(=O)N[C@@H](CC(C)C)C(=O)N[C@@H](CC(C)C)C(=O)N[C@@H](CCC(=O)O)C(=O)NC(C)(C)C(=O)NCC(=O)N1CCC[C@H]1C(=O)N[C@@H](CO)C(=O)N[C@@H](CO)C(=O)NCC(N)=O)[C@@H](C)CC
Human GIP receptor
  hGIPR cAMP EC50 ratio: 0.0257
  hGIPR cAMP Rel EC50: 5.81 nM
Human GLP-1 receptor
  hGLP1R cAMP EC50 ratio: 0.398
  hGLP1R cAMP Rel EC50: 0.152 nM
